Source: patent US20160348147A1, “SYSTEMS AND DEVICES FOR PROTEASE DETECTION BASED ON ENGINEERED POLYMERS AND BIOPOLYMERS AND METHODS OF USE” (DUKE UNIVERSITY, priority 2014, published 2016)
“And” between values parts separate entries of the source, which are not always exact repeats. Equal values may be shown once.

Columns and labels:
MMP-1 = target: T1, MMP-1 (Homo sapiens, UniProt P03956); experiment: Thermal behavior (OD350, DLS) after incubation with MMP-1; type: biochemical; conditions: MMP-1 100 ng/mL, 12 h at 40° C.
T1 construct: Human MMP-1 catalytic domain (recombinant, produced in E. coli, 19.9 kDa, >95% purity); purchased Enzo Life Sciences (Farmingdale, N.Y.); host or cells: E. coli
T1 sequence (P03956 100-269 limits assumed): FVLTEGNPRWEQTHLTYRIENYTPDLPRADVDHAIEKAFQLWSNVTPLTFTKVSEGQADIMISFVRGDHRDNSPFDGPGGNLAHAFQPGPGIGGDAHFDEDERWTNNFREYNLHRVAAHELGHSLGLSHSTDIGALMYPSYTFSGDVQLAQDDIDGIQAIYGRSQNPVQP
Method: (§1) We performed the proteolysis reactions either in 100% protease buffer or in a mixture of human serum and buffer (40% (v/v) serum, 50% (v/v) buffer, 10% (v/v) ELP-substrate solution in water). The proteolysis buffer (100 mM HEPES, CaCl2 20 mM, MgCl2 1.0 mM, ZnCl2 100 μM, NaCl 0.5 M for diluted serum and 0.1 M for buffer solutions) was made experimentally in our lab based on previously published assays (Patterson, J. & Hubbell, J. A. Biomaterials 2010, 31, 7836-7845; Turk, B. E. et al., Nature Biotechnology 2001, 19, 661-667; Lowe, S. B. et al., Acs Nano 2012, 6, 851-857). We investigated proteolysis in two ways. In the first approach, we incubated solutions of the ELP-substrate fusion with MMP-1 (100 ng/mL) for 12 h at 40° C. temperature and measured the optical density at 350 nm (OD350) before and after the incubation. In the second approach, we incubated the ELP-substrate fusion with varying concentrations of MMP-1 (0.02 ng/mL to 200 ng/mL) in buffer or in diluted human serum, at 40° C. or 37° C. respectively, a temperature that is above the CMT of the ELP, and monitored the changes OD350 as a function of time (kinetic study). For the kinetic studies, we added the enzyme to the solution after the optical density of the solution reached a steady-state value and repeated the experiments at least three times. […]

[1] = Thermal behavior by optical turbidimetry and dynamic light scattering; type: physicochemical; conditions: 100 μM in buffer
Method: We confirmed the purity and molecular weight of the purified peptides by electrophoresis (10-20% gradient […] SDS-PAGE, Thermo Scientific, CA) and by matrix-assisted laser desorption/ionization mass spectrometry. Mass spectrometry samples were prepared by mixing the enzymatic reaction product with sinapinic acid in 1:10 ratio. 1 μL of the sample/matrix mixture was then loaded on the grid and the measurements were performed on a Voyager-DE-Pro instrument (Applied Biosystems, Germany). To determine the concentration of the ELP-substrate fusion solutions we used a calculated extinction coefficient (Gill, S. C. & Vonhippel, P. H. Analytical Biochemistry 1989, 182, 319-326) or lyophilized the polypeptide solution. We studied the thermal behavior of the ELP-substrate fusion constructs in both proteolysis buffer (see below) and diluted human serum in the presence and absence of MMP-1 using optical turbidimetry on a temperature-programmed UV-vis spectrometer (Cary 300, Agilent Technologies). To characterize the size of the micelles and aggregates, we used single angle dynamic light scattering (DLS; DynaPro, Protein Solution).
FIG. 2 presents optical densities at 350 nm (OD350) and hydrodynamic diameters of ELP-substrate fusion as a function of temperature prior to, and after, enzymatic reaction. […] These changes are consistent with the self-assembly of ELP-substrate fusions (unimers) into micelles as the temperature is raised above the CMT (Ghoorchian, A. et al., The Journal of Physical Chemistry. B 2013, 117, 8865-8874). We note that there is a slight local maximum in both the optical density and hydrodynamic diameter at temperatures slightly above the CMT, which has been observed previously (Hassouneh, W., Duke University, PhD thesis, 2013); the origin of this small peak is, as yet, unclear.

[2] = tested on: endogenous MMP-1 in human serum; experiment: Time-dependent aggregation (OD350) of ELP-substrate fusion in diluted human serum (40%); type: biochemical; conditions: diluted serum with no added MMP-1, 37° C.
Method: as §1

[3] = DLS, prior to enzymatic reaction

## M(GVGVP)60GDGQVPMSMRGGDDEGQQDDEEGY (MGVGVPGDGQVPMSMRGGDDEGQQDDEEGY) [ELP-substrate fusion, recombinant polypeptide: ELP fused to MMP-1 substrate and charged hydrophilic peptide]
MMP-1; 100 μM
  temperature above which large aggregates form after incubation with MMP-1: ≈ 37 °C
MMP-1; DLS at 38° C.
  particle diameter after incubation with MMP-1: over a micron
[1]; prior to enzymatic reaction
  critical micellization temperature (CMT): ≈ 38 °C and 38 °C
[1]; [3]
  hydrodynamic diameter above Tt: ≈ 50 nm
  hydrodynamic diameter below the CMT: < 10 nm
[1]; before enzymatic reaction
  increase of OD350 as the solution is heated through the CMT: about 0.2 OD units
[2]
  aggregation time: ~350 min
